Publication PMC7775534

Target: T1, DR_1836 (DrSRP protein, Ffh homolog) (Deinococcus radiodurans R1 (ATCC 13939)) (UniProt Q9RTC9)
T1 sequence: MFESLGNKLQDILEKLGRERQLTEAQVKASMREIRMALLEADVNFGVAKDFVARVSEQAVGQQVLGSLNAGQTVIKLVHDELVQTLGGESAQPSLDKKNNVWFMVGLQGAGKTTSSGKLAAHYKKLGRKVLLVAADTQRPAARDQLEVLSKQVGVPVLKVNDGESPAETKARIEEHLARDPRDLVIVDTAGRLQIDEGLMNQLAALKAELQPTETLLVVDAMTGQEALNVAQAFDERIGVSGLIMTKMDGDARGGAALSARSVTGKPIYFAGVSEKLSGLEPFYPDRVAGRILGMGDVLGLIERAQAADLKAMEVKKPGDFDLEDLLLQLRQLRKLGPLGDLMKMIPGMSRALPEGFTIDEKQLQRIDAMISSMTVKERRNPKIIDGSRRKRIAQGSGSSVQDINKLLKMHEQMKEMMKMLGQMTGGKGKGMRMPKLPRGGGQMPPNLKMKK
Experiment: EMSA
Conditions: 20 mM Tris-HCl pH 8.0, 1 mM MgCl2, 20 mM KCl, 10 mM Na phosphate pH 8.0, 10% glycerol, 0.2 mM DTT, 37 C 1 h; 4% native PAGE, 0.5x TBE, 4 C

GGGAGACGCCAGACGUAGGGCAGUACCCCCUUCUCUGCACAGCGCCCGCAACUGUGCUACCAUCCUUCCCGCAUUGCUGGUGCAGCGCAGCGCGGACGCCCGAACCUGGUCAGAGCCGGAAGGCAGCAGCCAUAAGGGAUGCUUUGCGGGUGCCGUUGCCUUCCGGCAAUGCUUUUUUCGUCUCUCCUCGGGGUCGCUUACGGGCGGCCCUGUUUUGUUGUGCUUAGAGCAAUUGACAGAA [Qpr6 (SRP RNA)]
binding: binds
